# Measured values reported in patent US7166475B2, “Compositions and methods for monitoring the modification state of a pair of polypeptides” (Cyclacel Ltd., priority 1999, dated 2007).
# No end group written: not given here. rhodamine = not defined here
# How the values were obtained:
# [1] = assay type: physicochemical; details: 10 μM peptide, pH 7.0, 20° C.
# Experimental: The circular dichroism (measured in units of ellipticity) of proteins at 222 nm provides a measure of the amount of a-helix present in the structure, with a large, negative ellipticity indicting a high level of helicity. The coiled-coil has a distinctive a-helical CD spectrum with minima at 222 nm and 208 nm (O'Shea et al., 1989, Science, 243: 538–542). The CD spectra of the unmodified Zip3 and its phosphorylated form (‘Zip3P’) are determined at a sample concentration of 10 μM in 150 mM KCB, 42.2 mM K2HPO4, 7.8 mM KH2PO4, pH 7.0 at 20° C.; spectra are recorded using a 1 mm pathlength cell in a Jasco J-715 spectropolarimeter with a Jasco PTC-348W Peltier temperature control unit. Peptide concentration is determined by tyrosine absorbance at 280 nm in 6M GuHCl. […] The effipticities of Zip3 and Zip3P at 222 nm with increasing temperature are measured. The steep portion of the sigmoid curve for Zip3 indicates the unfolding of the molecule. It is clear that this leucine zipper peptide begins to unfold at around 35° C. and is completely unfolded by 70° C. […]
# The circular dichroism (measured in units of ellipticity) of proteins at 222 nm provides a measure of the amount of a-helix present in the structure, with a large, negative ellipticity indicting a high level of helicity. […] In all experiments described herein, peptide concentration is determined by tyrosine absorbance at 280 nm in 6M GnHCl.
# chymotrypsin = test: Time-course digestion with chymotrypsin, MALDI-TOF; assay type: biochemical
# Experimental: A time-course digestion of Peptide A with chymotrypsin is analysed by MALDI-TOF mass spectrometry. On the protein matrix (MS, denoted SA on each spectrogram) the Peptide A substrate as 4245 Da is evident. […] The C-terminal fragment appears to be cleaved at a second site (after L-26) generating a product of 1100 Da, although the final peptide fragment of about 990 Da is not observed in the MS.
# aminopeptidase = test: Aminopeptidase digestion, FRET; assay type: biochemical
# peptide D = test: FRET of fluorescein-labelled peptides N and C with rhodamine-labelled peptide D; assay type: binding; details: no peptidase
# carboxypeptidase = test: Carboxypeptidase digestion, FRET; assay type: biochemical
# PKA = PKA (Homo sapiens, UniProt P17612); test: Timecourse of phosphorylation by PKA (32P-ATP); assay type: biochemical; details: 0.2 mM ATP
# Experimental: A timecourse of phosphorylation of these peptides by PKA is run in 50 mM histidine/HCl (pH 7.0), 5 mM MgSO4, 5 mM NaF, 0.05 mM EGTA, 120 mM kcb with 0.2 mM ATP (30.9 cpm/pmol ^32P-ATP) and 0.5 μM PKA. […] Zip4T is also phosphorylated, at a slower rate, with full phosphorylation achieved in 30 minutes in this assay. In this assay, the difference in cpm recovered between the Zip4 peptides and PL919Y is due to the difference in recovery of these peptides on P81 paper. The plateau indicates full phosphorylation.
# A set of timecourses of phosphorylation is performed on Zip4S using PKA and Ca^2+/Calmodulin-dependent Protein Kinase (CaMK-II), together with positive and negative controls for CaMK-II (these controls confirm that the preparation of CaMK-II posesses the expected characteristics of that enzyme). PKA phosphorylation is performed in 50 mM histidine/HCl (pH 7.0), 5 mM MgSO4, 5 mM NaF, 0.05 mM EGTA, 120 mM kcb with 0.2 mM ATP (39.72 cpm/pmol ^32P-ATP) and 0.25 μM PKA. CaMK-II phosphorylation is performed in 50 mM histidine/HCl (pH 7.0), 5 mM MgSO4, 5 mM NaF, 120 mM kcb, 0.5 mM Ca^2+, 0.037 mg/ml calmodulin with 0.2 mM ATP (39.72 cpm/pmol ^32P-ATP) and 10% crude CaMK-II. In the Ca^2+-free experiment, Ca^2+ is replaced by 0.05 mM EGTA. […]
# [2] = test system: Ca^2+/Calmodulin-dependent Protein Kinase (CaMK-II); test: Timecourse of phosphorylation by CaMK-II (32P-ATP); assay type: biochemical; details: 10% crude CaMK-II, 0.5 mM Ca^2+, 0.037 mg/ml calmodulin, 0.2 mM ATP
# Experimental: A set of timecourses of phosphorylation is performed on Zip4S using PKA and Ca^2+/Calmodulin-dependent Protein Kinase (CaMK-II), together with positive and negative controls for CaMK-II (these controls confirm that the preparation of CaMK-II posesses the expected characteristics of that enzyme). PKA phosphorylation is performed in 50 mM histidine/HCl (pH 7.0), 5 mM MgSO4, 5 mM NaF, 0.05 mM EGTA, 120 mM kcb with 0.2 mM ATP (39.72 cpm/pmol ^32P-ATP) and 0.25 μM PKA. CaMK-II phosphorylation is performed in 50 mM histidine/HCl (pH 7.0), 5 mM MgSO4, 5 mM NaF, 120 mM kcb, 0.5 mM Ca^2+, 0.037 mg/ml calmodulin with 0.2 mM ATP (39.72 cpm/pmol ^32P-ATP) and 10% crude CaMK-II. In the Ca^2+-free experiment, Ca^2+ is replaced by 0.05 mM EGTA. […] Such specificity of a modification site in a polypeptide according to the invention is a clear advantage for use of the invention in an intracellular assay, or for measuring the activity of a particular polypeptide modifying agent in a complex mixture such as a cell lysate.
# [3] = molecular target: T1, Peptide N, fluorescein-labelled (fluorescein label at the K residue); test: FRET, peptide N immobilised
# T1 peptide: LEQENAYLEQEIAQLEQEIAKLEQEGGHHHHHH
# [4] = molecular target: T2, Peptide C, fluorescein-labelled (fluorescein label (site said to be 'the C and K residues as before', but the entry has neither Cys nor Lys)); test: FRET, peptide C immobilised
# T2 peptide: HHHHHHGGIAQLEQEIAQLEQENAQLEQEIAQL
# [5] = molecular target: T3, Peptide 3 (SEQ ID NO. 54), labelled with fluorescein (fluorescein at the lysine residue); test: FRET, Peptide 3 immobilised
# T3 construct: also called peptides 3
# T3 peptide: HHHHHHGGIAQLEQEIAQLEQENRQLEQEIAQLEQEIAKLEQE
# [6] = molecular target: T4, Peptide 4 (SEQ ID NO. 56) (fluorescein label, by the procedure of Example 10 (not restated)); test: FRET, procedure of Example 10
# T4 construct: Immobilised peptide of the caspase reporter; also called Peptides 4
# T4 peptide: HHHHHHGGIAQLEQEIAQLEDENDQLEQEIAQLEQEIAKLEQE
# Pep 1 = molecular target: T5, Pep 1; test: statement in Example 3
# T5 construct: Unphosphorylated; immobilised by its His tag on a Ni-NTA sensor chip in the Biacore assay
# T5 peptide: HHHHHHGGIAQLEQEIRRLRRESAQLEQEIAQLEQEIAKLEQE
# Zip4SF = molecular target: T6, Zip4SF (fluorescein label (on the cysteine residue, by analogy with Zip3F)); test: FRET in solution
# T6 construct: read as Zip4S with fluorescein, like Zip3F; also called Zip4S labelled with fluorescein
# T6 peptide: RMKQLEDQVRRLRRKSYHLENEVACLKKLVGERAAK
# [7] = molecular target: T7, Pep 1F (Pep 1 peptide labelled with fluorescein) (not fully specified; fluorescein label; the lysine residue is inserted for labelling purposes); test: FRET in solution, 50 µM Pep 1F and 50 µM Pep 2R, 37 °C
# T7 construct: Unphosphorylated
# T7 peptide: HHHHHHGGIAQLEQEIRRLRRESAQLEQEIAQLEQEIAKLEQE
# Experimental: Fluorescence emission of fluorescein is measured at 520 nm by exciting at appropriate wavelength (450 nm). Pep 2R (Pep 2 labelled with rhodamine) at concentrations equal to that of Pep 1F (50 μM) is added and the fluorescence emission of Pep 1F and Pep 2R are monitored.
molecule,measurement,setting,value
HHHHHHGGIAQLEQEIAQLEQENAYLEQEIAQLEQEIAKLEQE [Peptide A],CD spectrum (structure indicated),[1],classic coiled-coil
same,digestion by chymotrypsin,chymotrypsin,degraded completely over two hours
LEQENAYLEQEIAQLEQEIAKLEQEGGHHHHHH [Peptide N],FRET of pair with peptide D after addition of aminopeptidase,aminopeptidase,complete loss of FRET
same,FRET in the presence of rhodamine-labelled peptide D,peptide D,FRET is observed
same,FRET of pair with peptide D after addition of carboxypeptidase,carboxypeptidase,not affected
R MKQLEDQ VRRLRRK SYHLENE VACLKKL VGERAAK (RMKQLEDQVRRLRRKSYHLENEVACLKKLVGERAAK) [Zip4S],extent of phosphorylation by PKA,PKA; 0.25 μM PKA,complete phosphorylation
same,"phosphorylation by PKA (substrate quality, rate)","PKA; 0.5 μM PKA, compared with known substrate PL919Y",good substrate
same,phosphorylation by CaMK-II,[2],unable to phosphorylate
"IAQLKQKIAQLKQKNAQLKQKIAQLKQKIC(rhodamine)QLKQK (reading uncertain) [Peptide D, rhodamine-labelled]",binding result,[3],binds
same,binding result,[4],binds
"IAQLKQKIAQLKQKNAQLKQKIAQLKQKIC(rhodamine)QLKQK (reading uncertain) [peptide 33 (SEQ ID NO. 55), labelled with rhodamine]",binding result,[5],binds
"IAQLKQKIAQLKQKNAQLKQKIAQLKQKICQLKQK (also: rhodamine label by procedure, site not given here) [Peptide 44 (SEQ ID NO. 57)]",binding result,[6],binds
IAQLKQEIAQLKQKNAQLKQKIAQLKQKICQLKQK [Pep 2],binding result,Pep 1,binds
"RMKQLEDQVRRLRRKSYHLENEVACLKKLVGERAAK (also: rhodamine label, read from undefined name by analogy with Zip3R, read as Zip4S with rhodamine, like Zip3R; also called Zip4S labelled with rhodamine) [Zip4SR]",binding result,Zip4SF,binds
IAQLKQEIAQLKQKNAQLKQKIAQLKQKIC(rhodamine)QLKQK (reading uncertain) [Pep 2R (Pep 2 peptide labelled with rhodamine)],binding result,[7],binds
